Among the data in PMC7002446 are tumor growth inhibition (TGI) rate in TfR1-positive GC-PDX mouse models treated with HFn-Dox (against 41.6% for free Dox) values, retold here.

The experiment has as its target transferrin receptor 1 (TfR1) (human (endogenous in gastric cancer patient tissue and human GC cell lines)) (UniProt P02786).

transferrin receptor 1 (TfR1) (human (endogenous in gastric cancer patient tissue and human GC cell lines)), sequence (P02786 whole entry): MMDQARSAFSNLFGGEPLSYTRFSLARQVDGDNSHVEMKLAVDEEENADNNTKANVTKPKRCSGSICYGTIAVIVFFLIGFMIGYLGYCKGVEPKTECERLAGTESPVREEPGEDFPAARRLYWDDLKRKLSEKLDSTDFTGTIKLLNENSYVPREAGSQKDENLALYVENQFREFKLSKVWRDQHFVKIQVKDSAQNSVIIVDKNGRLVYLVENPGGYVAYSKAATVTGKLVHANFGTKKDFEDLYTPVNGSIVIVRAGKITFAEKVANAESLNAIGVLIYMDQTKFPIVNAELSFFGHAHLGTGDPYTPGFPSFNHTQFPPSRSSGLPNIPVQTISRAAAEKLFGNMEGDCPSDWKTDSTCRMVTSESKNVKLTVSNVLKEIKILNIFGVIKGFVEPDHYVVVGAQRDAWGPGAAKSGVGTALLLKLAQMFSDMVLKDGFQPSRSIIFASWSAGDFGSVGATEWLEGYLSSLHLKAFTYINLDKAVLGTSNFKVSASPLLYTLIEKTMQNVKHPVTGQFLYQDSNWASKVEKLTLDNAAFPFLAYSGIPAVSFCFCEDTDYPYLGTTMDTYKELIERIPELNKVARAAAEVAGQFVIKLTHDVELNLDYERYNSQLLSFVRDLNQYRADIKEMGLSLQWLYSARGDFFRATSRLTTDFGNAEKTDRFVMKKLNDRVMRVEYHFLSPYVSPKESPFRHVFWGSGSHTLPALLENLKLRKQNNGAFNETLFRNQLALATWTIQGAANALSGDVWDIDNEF
doxorubicin-loaded HFn nanocarrier (HFn-Dox), sequence (P02794 whole entry): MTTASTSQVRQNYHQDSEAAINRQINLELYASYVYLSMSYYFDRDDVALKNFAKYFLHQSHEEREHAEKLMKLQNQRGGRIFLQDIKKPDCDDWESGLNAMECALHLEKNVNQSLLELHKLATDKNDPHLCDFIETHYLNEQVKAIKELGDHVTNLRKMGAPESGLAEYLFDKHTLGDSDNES

“doxorubicin-loaded HFn nanocarrier (HFn-Dox) (from UniProt P02794 1-183) (natural protein)” gave a tumor growth inhibition (TGI) rate in TfR1-positive GC-PDX mouse models treated with HFn-Dox (against 41.6% for free Dox) of 91.1%.
